Source: the supplement of paper PMC6755084

B1: minF1; a variant is named by its letters at N, in order (parent)
chain: GAGACCGCAACTGAAAAGTTGTTNNNNAANNNNNGGNTNAATTTCTGCACGTAGAAGCAAAAGGC

Variants of: B1
Test: fraction ligated after 30 min (ligated reads / total reads); higher = more ligase activity
Settings: with F1*subA RNA substrate (template-directed ligation), 42 °C
In short: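 RNAs for minimized ligase ribozyme variants were transcribed with T7 from PCR-amplified oligo-pool templates and purified on gels. Ligated and unligated species were resolved on gels, converted to cDNA with barcoded primers, and read on a MiSeq with core bases filtered at quality ≥30. Fraction ligated per variant is the ratio of ligated reads to total reads.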

With GAGACCGCAACTGAAAAGTTGTTCGAAATGGATGGGTTGAATTTCTGCACGTAGAAGCAAAAGGC [CGAAGGATGTG A29T] as the variant, how does the fraction ligated read?
Its fraction ligated is 0.0086.

With GAGACCGCAACTGAAAAGTTGTTTCAGAATGGATGGGTTAATTTCTGCACGTAGAAGCAAAAGGC [TCAGTGGATGT] as the variant, how does the fraction ligated read?
Its fraction ligated is 0.00577.

With GAGACCGCAACTGAAAAGTTGTATCAGAAATGTGGGTTGAATTTCTGCACGTAGAAGCAAAAGGC [TCAGATGTGTG T23A] as the variant, how does the fraction ligated read?
Its fraction ligated is 0.00194.

Which fraction ligated does the source give for GAGACCGCAACTGAAAAGTTGTTTCAGAATGGAGGGTTGAATTTCTGCACGTAGAAGCAAAAGGC [TCAGTGGAGTG] here?
The fraction ligated was 0.00343.

For GAGACCGCAACTGAAAAGTTGTTTCAGAATGGATGGTTGAATTTCTGCACGTAGAAGCAAAAGGC [TCAGTGGATTG], which fraction ligated is on record?
The fraction ligated was 0.0102.

With GAGACCGCAACTGAAAAGTTGTTATAGAAAGGATGGGTTGATTTCTGCACGTAGAAGCAAAAGGC [ATAGAGGATGT A40G] as the variant, how does the fraction ligated read?
Its fraction ligated is 0.00594.

How did the fraction ligated turn out when GAGACCGCAACTGAAAAGTTGTTACAGAATGATGGGTTGAATTTCTGCACGTAGAAGCAAAAGGC [ACAGTGATGTG] was run?
The fraction ligated was 0.00182.

Which fraction ligated does the source give for GAGACCGCAACTGAAAAGTTGTATCGAAATGGTGGGTTGAATTTCTGCACGTAGAAGCAAAAGGC [TCGATGGTGTG T23A] here?
Its fraction ligated is 0.00501.

GAGACCGCAACTGAAAAGTTGTTACAGAAATGGGGGTTGAATTTCTGCACGTAGAAGCAAAAGGC [ACAGATGGGTG] was tested. Which fraction ligated did it give?
Its fraction ligated is 0.00695.

For GAGACCGCAACTGAAAAGTTGTATCAGAAATGGTGGGTTGATTTCTGCACGTAGAAGCAAAAGGC [TCAGATGGTGT T23A A40G], which fraction ligated is on record?
Its fraction ligated is 0.00684.

GAGACCGCAACTGAAAAGTTGTATCAGAAATGGGGGTTGAATTTCTGCACGTAGAAGCAAAAGGC [TCAGATGGGTG T23A] was tested. Which fraction ligated did it give?
The fraction ligated was 0.00356.

With GAGACCGCAACTGAAAAGTTGTTATAGAAAGGATGGTTGAATTTCTGCACGTAGAAGCAAAAGGC [ATAGAGGATTG] as the variant, how does the fraction ligated read?
The fraction ligated was 0.00226.

GAGACCGCAACTGAAAAGTTGTTATAGAAAGGTGGGTTGAATTTCTGCACGTAGAAGCAAAAGGC [ATAGAGGTGTG] was tested. Which fraction ligated did it give?
The fraction ligated was 0.00246.

For GAGACCGCAACTGAAAAGTTGTTACGAAATGGATGGTTGAATTTCTGCACGTAGAAGCAAAAGGC [ACGATGGATTG], which fraction ligated is on record?
Its fraction ligated is 0.0663.

Which fraction ligated does the source give for GAGACCGCAACTGAAAAGTTGTATCAGAATGGTGGGTTGAATTTCTGCACGTAGAAGCAAAAGGC [TCAGTGGTGTG T23A] here?
The fraction ligated was 0.00335.

Which fraction ligated does the source give for GAGACCGCAACTGAAAAGTTGTTACGAAAGGATGGGTTGAATTTCTGCACGTAGAAGCAAAAGGC [ACGAGGATGTG] here?
The fraction ligated was 0.00409.

With GAGACCGCAACTGAAAAGTTGTATCGAAATGGAGGGTTGAATTTCTGCACGTAGAAGCAAAAGGC [TCGATGGAGTG T23A] as the variant, how does the fraction ligated read?
Its fraction ligated is 0.00843.

GAGACCGCAACTGAAAAGTTGTATCAGAATGATGGGTTGAATTTCTGCACGTAGAAGCAAAAGGC [TCAGTGATGTG T23A] was tested. Which fraction ligated did it give?
Its fraction ligated is 0.00342.

For GAGACCGCAACTGAAAAGTTGTATCAGATGGATGGGTTGAATTTCTGCACGTAGAAGCAAAAGGC [TCAGGGATGTG T23A A29T], which fraction ligated is on record?
The fraction ligated was 0.0174.

For GAGACCGCAACTGAAAAGTTGTTTCAGAAATGGTGGGTTGATTTCTGCACGTAGAAGCAAAAGGC [TCAGATGGTGT A40G], which fraction ligated is on record?
The fraction ligated was 0.00521.

With GAGACCGCAACTGAAAAGTTGTTATAAAATGGATGGGTTGATTTCTGCACGTAGAAGCAAAAGGC [ATAATGGATGT A40G] as the variant, how does the fraction ligated read?
Its fraction ligated is 0.0127.

With GAGACCGCAACTGAAAAGTTGTTAGAAATGGATGGGTTGAATTTCTGCACGTAGAAGCAAAAGGC [AGAAGGATGTG A29T] as the variant, how does the fraction ligated read?
The fraction ligated was 0.00349.

GAGACCGCAACTGAAAAGTTGTTTCAGAAATGGTGGTTGAATTTCTGCACGTAGAAGCAAAAGGC [TCAGATGGTTG] was tested. Which fraction ligated did it give?
The fraction ligated was 0.00217.

How did the fraction ligated turn out when GAGACCGCAACTGAAAAGTTGTTACGAATGGATGGGTTGAATTTCTGCACGTAGAAGCAAAAGGC [ACGAGGATGTG A29T] was run?
Its fraction ligated is 0.0139.

With GAGACCGCAACTGAAAAGTTGTTACGAAATGGTGGGTTGAATTTCTGCACGTAGAAGCAAAAGGC [ACGATGGTGTG] as the variant, how does the fraction ligated read?
Its fraction ligated is 0.00555.

With GAGACCGCAACTGAAAAGTTGTTATAAAATGGAGGGTTGAATTTCTGCACGTAGAAGCAAAAGGC [ATAATGGAGTG] as the variant, how does the fraction ligated read?
Its fraction ligated is 0.00187.

For GAGACCGCAACTGAAAAGTTGTATCGAAATGGATGGGTTGATTTCTGCACGTAGAAGCAAAAGGC [TCGATGGATGT T23A A40G], which fraction ligated is on record?
The fraction ligated was 0.0572.

For GAGACCGCAACTGAAAAGTTGTATCGAATGGATGGGTTGAATTTCTGCACGTAGAAGCAAAAGGC [TCGAGGATGTG T23A A29T], which fraction ligated is on record?
Its fraction ligated is 0.013.

GAGACCGCAACTGAAAAGTTGTTACGAAATGATGGGTTGAATTTCTGCACGTAGAAGCAAAAGGC [ACGATGATGTG] was tested. Which fraction ligated did it give?
The fraction ligated was 0.00228.

With GAGACCGCAACTGAAAAGTTGTTATAAAATGGATGGGTTAATTTCTGCACGTAGAAGCAAAAGGC [ATAATGGATGT] as the variant, how does the fraction ligated read?
Its fraction ligated is 0.00257.

With GAGACCGCAACTGAAAAGTTGTATCGAAATGGATGGTTGAATTTCTGCACGTAGAAGCAAAAGGC [TCGATGGATTG T23A] as the variant, how does the fraction ligated read?
The fraction ligated was 0.116.

With GAGACCGCAACTGAAAAGTTGTATCAGAATGGATGGGTTGATTTCTGCACGTAGAAGCAAAAGGC [TCAGTGGATGT T23A A40G] as the variant, how does the fraction ligated read?
Its fraction ligated is 0.0264.

How did the fraction ligated turn out when GAGACCGCAACTGAAAAGTTGTTATAGAAAGGATGGGTTAATTTCTGCACGTAGAAGCAAAAGGC [ATAGAGGATGT] was run?
The fraction ligated was 0.00209.

How did the fraction ligated turn out when GAGACCGCAACTGAAAAGTTGTTTCGAAATGGATGGTTGAATTTCTGCACGTAGAAGCAAAAGGC [TCGATGGATTG] was run?
Its fraction ligated is 0.127.

With GAGACCGCAACTGAAAAGTTGTATCGAAATGATGGGTTGAATTTCTGCACGTAGAAGCAAAAGGC [TCGATGATGTG T23A] as the variant, how does the fraction ligated read?
Its fraction ligated is 0.00559.

For GAGACCGCAACTGAAAAGTTGTTTCAGAATGATGGGTTGAATTTCTGCACGTAGAAGCAAAAGGC [TCAGTGATGTG], which fraction ligated is on record?
Its fraction ligated is 0.00229.

With GAGACCGCAACTGAAAAGTTGTATCAGAATGGATGGGTTAATTTCTGCACGTAGAAGCAAAAGGC [TCAGTGGATGT T23A] as the variant, how does the fraction ligated read?
The fraction ligated was 0.00804.

GAGACCGCAACTGAAAAGTTGTTTCGAAATGATGGGTTGAATTTCTGCACGTAGAAGCAAAAGGC [TCGATGATGTG] was tested. Which fraction ligated did it give?
The fraction ligated was 0.00384.

How did the fraction ligated turn out when GAGACCGCAACTGAAAAGTTGTTATAAAATGGTGGGTTGAATTTCTGCACGTAGAAGCAAAAGGC [ATAATGGTGTG] was run?
Its fraction ligated is 0.00284.

With GAGACCGCAACTGAAAAGTTGTTTCAGAATGGTGGGTTGAATTTCTGCACGTAGAAGCAAAAGGC [TCAGTGGTGTG] as the variant, how does the fraction ligated read?
The fraction ligated was 0.00248.

For GAGACCGCAACTGAAAAGTTGTATCAGAAGGATGGGTTGAATTTCTGCACGTAGAAGCAAAAGGC [TCAGGGATGTG T23A], which fraction ligated is on record?
The fraction ligated was 0.00448.
